Experimental data: patent US20150218551A1

Molecular target: LR1-C1 envelope protein (Env variant of HIV-1 AC10) on virions (HIV-1)
Assay: virion capture assay: virions titrated on plates coated with 4E10, bound virus measured by p24 ELISA; reference AC10 wild-type virions

Question: With 4E10 antibody as the substance, how does the fold increase in affinity against the AC10 wild-type variant read?
Answer: 4 fold
